Experimental data: US20060257938A1, “Method of screening for drugs that block ligand binding to a lipid binding protein” (priority 2005, published 2006)

Key:
Type in all cases: binding
[1] = Probe fluorescence ratio response to oleic acid relative to ADIFAB2; conditions: response relative to ADIFAB2
Method in brief: (§1)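 Fluorescently labeled rat intestinal FABP variants were read at two emission wavelengths, near the unbound maximum (about 420 to 480 nm) and the FFA-bound maximum (about 495 to 580 nm). R = Fλ1/Fλ2 after subtracting probe-free intensity; ΔR = R+agent − R0, normalized to ADIFAB2 (rI-FABP-L72A).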

[2] = Probe fluorescence ratio response to palmitic acid relative to ADIFAB2; conditions: response relative to ADIFAB2
Method in brief: as §1

[3] = Probe fluorescence ratio response to linoleic acid relative to ADIFAB2; conditions: response relative to ADIFAB2
Method in brief: as §1

[4] = Probe fluorescence ratio response to linolenic acid relative to ADIFAB2; conditions: response relative to ADIFAB2
Method in brief: as §1

[5] = Probe fluorescence ratio response to stearic acid relative to ADIFAB2; conditions: response relative to ADIFAB2
Method in brief: as §1

[6] = Probe fluorescence ratio response to arachidonic acid relative to ADIFAB2; conditions: arachidonic acid; response relative to ADIFAB2
Method in brief: as §1

[7] = Probe fluorescence ratio response to palmitoleic acid relative to ADIFAB2; conditions: response relative to ADIFAB2
Method in brief: as §1

Molecule | DR/DR OA [1] | DR/DR PA [2] | DR/DR LA [3] | DR/DR LNA [4] | DR/DR SA [5] | DR/DR AA [6] | DR/DR POA [7]
72H 73Y 74G (protein, listed as Rattus norvegicus, PEPTIDE (1)...(131) wild-type rat intestinal fatty acid binding protein) AFDGTWKVDRNENYEKFMEKMGINVVKRKLGAHDNLKLTITQEGNKFTVKESSNFRNIDVVFELGVDFAYSHYGGTELTGTWTMEGNKLVGKFKRVDNGKELIAVREISGNELIQTYTYEGVEAKRIFKKE | 0.140 | 0.486 | 0.472 | 0.591 | 0.052 | 0.600 | 0.986
72G 74F (protein, listed as Rattus norvegicus, PEPTIDE (1)...(131) wild-type rat intestinal fatty acid binding protein) AFDGTWKVDRNENYEKFMEKMGINVVKRKLGAHDNLKLTITQEGNKFTVKESSNFRNIDVVFELGVDFAYSGAFGTELTGTWTMEGNKLVGKFKRVDNGKELIAVREISGNELIQTYTYEGVEAKRIFKKE | 1.490 | 2.304 | 2.116 | 1.970 | 0.669 | 1.669 | 2.996
38Q 106W 117A 72A (protein, listed as Rattus norvegicus, PEPTIDE (1)...(131) wild-type rat intestinal fatty acid binding protein) AFDGTWKVDRNENYEKFMEKMGINVVKRKLGAHDNLKQTITQEGNKFTVKESSNFRNIDVVFELGVDFAYSAADGTELTGTWTMEGNKLVGKFKRVDNGKELIAVWEISGNELIQTATYEGVEAKRIFKKE | 0.899 | 0.444 | 0.860 | 0.795 | 0.281 | 1.078 | 0.970
14L 18S 31L 73V 117A 72A (protein, listed as Rattus norvegicus, PEPTIDE (1)...(131) wild-type rat intestinal fatty acid binding protein) AFDGTWKVDRNENLEKFSEKMGINVVKRKLLAHDNLKLTITQEGNKFTVKESSNFRNIDVVFELGVDFAYSAVDGTELTGTWTMEGNKLVGKFKRVDNGKELIAVREISGNELIQTATYEGVEAKRIFKKE | 0.020 | 0.028 | 0.534 | 0.673 | 0.007 | 0.951 | −0.003
21W 78A 102V 72A (protein, listed as Rattus norvegicus, PEPTIDE (1)...(131) wild-type rat intestinal fatty acid binding protein) AFDGTWKVDRNENYEKFMEKWGINVVKRKLGAHDNLKLTITQEGNKFTVKESSNFRNIDVVFELGVDFAYSAADGTEATGTWTMEGNKLVGKFKRVDNGKEVIAVREISGNELIQTYTYEGVEAKRIFKKE | 3.261 | 1.721 | 2.749 | 1.628 | 3.092 | 4.923 | 1.585
72T 73Q 74S (protein, listed as Rattus norvegicus, PEPTIDE (1)...(131) wild-type rat intestinal fatty acid binding protein) AFDGTWKVDRNENYEKFMEKMGINVVKRKLGAHDNLKLTITQEGNKFTVKESSNFRNIDVVFELGVDFAYSTQSGTELTGTWTMEGNKLVGKFKRVDNGKELIAVREISGNELIQTYTYEGVEAKRIFKKE | 2.676 | 2.646 | 2.713 | 2.419 | 1.792 | 2.166 | 3.110
73N 72A 74F (protein, listed as Rattus norvegicus, PEPTIDE (1)...(131) wild-type rat intestinal fatty acid binding protein) AFDGTWKVDRNENYEKFMEKMGINVVKRKLGAHDNLKLTITQEGNKFTVKESSNFRNIDVVFELGVDFAYSANFGTELTGTWTMEGNKLVGKFKRVDNGKELIAVREISGNELIQTYTYEGVEAKRIFKKE | 0.775 | 1.468 | 0.976 | 1.299 | 0.271 | 0.870 | 2.256
18I 31L 73L 72A (protein, listed as Rattus norvegicus, PEPTIDE (1)...(131) wild-type rat intestinal fatty acid binding protein) AFDGTWKVDRNENYEKFIEKMGINVVKRKLLAHDNLKLTITQEGNKFTVKESSNFRNIDVVFELGVDFAYSALDGTELTGTWTMEGNKLVGKFKRVDNGKELIAVREISGNELIQTYTYEGVEAKRIFKKE | 0.549 | 1.075 | 0.682 | 0.857 | 0.390 | 0.626 | 0.781
14L 18T 31E 73G 117G 72A (protein, listed as Rattus norvegicus, PEPTIDE (1)...(131) wild-type rat intestinal fatty acid binding protein) AFDGTWKVDRNENLEKFTEKMGINVVKRKLEAHDNLKLTITQEGNKFTVKESSNFRNIDVVFELGVDFAYSAGDGTELTGTWTMEGNKLVGKFKRVDNGKELIAVREISGNELIQTGTYEGVEAKRIFKKE | 1.096 | 0.712 | 1.107 | 1.133 | 0.413 | 1.236 | 1.072
21W 78F 72A (protein, listed as Rattus norvegicus, PEPTIDE (1)...(131) wild-type rat intestinal fatty acid binding protein) AFDGTWKVDRNENYEKFMEKWGINVVKRKLGAHDNLKLTITQEGNKFTVKESSNFRNIDVVFELGVDFAYSAADGTEFTGTWTMEGNKLVGKFKRVDNGKELIAVREISGNELIQTYTYEGVEAKRIFKKE | 1.843 | 0.851 | 1.597 | 1.694 | 1.161 | 4.264 | 1.217
18L 55L 73I 72A (protein, listed as Rattus norvegicus, PEPTIDE (1)...(131) wild-type rat intestinal fatty acid binding protein) AFDGTWKVDRNENYEKFLEKMGINVVKRKLGAHDNLKLTITQEGNKFTVKESSNLRNIDVVFELGVDFAYSAIDGTELTGTWTMEGNKLVGKFKRVDNGKELIAVREISGNELIQTYTYEGVEAKRIFKKE | 0.021 | 0.007 | −0.129 | −0.044 | 0.423 | 0.443 | −0.030
18L 73L 72A (protein, listed as Rattus norvegicus, PEPTIDE (1)...(131) wild-type rat intestinal fatty acid binding protein) AFDGTWKVDRNENYEKFLEKMGINVVKRKLGAHDNLKLTITQEGNKFTVKESSNFRNIDVVFELGVDFAYSALDGTELTGTWTMEGNKLVGKFKRVDNGKELIAVREISGNELIQTYTYEGVEAKRIFKKE | 0.021 | −0.004 | 0.019 | 0.090 | 0.254 | 0.441 | 0.092
14V 18L 73V 117A 72A (protein, listed as Rattus norvegicus, PEPTIDE (1)...(131) wild-type rat intestinal fatty acid binding protein) AFDGTWKVDRNENVEKFLEKMGINVVKRKLGAHDNLKLTITQEGNKFTVKESSNFRNIDVVFELGVDFAYSAVDGTELTGTWTMEGNKLVGKFKRVDNGKELIAVREISGNELIQTATYEGVEAKRIFKKE | 0.307 | 0.249 | 0.557 | 0.624 | 0.105 | 0.926 | 0.597
21W 78I 72A (protein, listed as Rattus norvegicus, PEPTIDE (1)...(131) wild-type rat intestinal fatty acid binding protein) AFDGTWKVDRNENYEKFMEKWGINVVKRKLGAHDNLKLTITQEGNKFTVKESSNFRNIDVVFELGVDFAYSAADGTEITGTWTMEGNKLVGKFKRVDNGKELIAVREISGNELIQTYTYEGVEAKRIFKKE | 4.703 | 2.759 | 4.381 | 4.024 | 3.396 | 6.322 | 3.284
73I 72A (protein, listed as Rattus norvegicus, PEPTIDE (1)...(131) wild-type rat intestinal fatty acid binding protein) AFDGTWKVDRNENYEKFMEKMGINVVKRKLGAHDNLKLTITQEGNKFTVKESSNFRNIDVVFELGVDFAYSAIDGTELTGTWTMEGNKLVGKFKRVDNGKELIAVREISGNELIQTYTYEGVEAKRIFKKE | 0.045 | 0.015 | 0.039 | 0.099 | 0.242 | 0.408 | 0.117
